Laboratory results taken from US20260209345A1 (IOMX THERAPEUTICS, published 2026).

Experiments:
recombinant LILRB2 ECD [1] = biological target: T1, recombinant LILRB2 ECD (human, UniProt Q8N423 22-460); assay: competition ELISA (Example 3): biotinylated LILRB2 ECD with avidin-HRP pre-incubated with antibody 0.1-100 nM, residual binding to coated B2M-HLA-G-mouse IgG2a-Fc; blocked ligand HLA-G
T1 construct: also called biotinylated LILRB2 ECD

recombinant LILRB2 ECD [2] = biological target: T1, recombinant LILRB2 ECD; assay: ELISA, LILRB2 ECD binding to HLA-G-Fc
Description: (§1) HLA-G inhibition was tested by ELISA. 384-well Maxisorp plates were coated with 2 ug/mL B2M-HLA-G fused to a mouse IgG2a-Fc and the plates were blocked with 2% (w/v) BSA in PBST. […] 15 ul of the antibody dilution series (300 nM to 0.3 nM) were mixed with 30 μL of the pre-mixed LILRB/Avidin-HRP solution (final antibody concentration 100 nM to 0.1 nM) and incubated for 1 h at room temperature. After three wash cycles with PBST, 20 μL of the antibody/LILRB/Avidin-HRP solution was transferred to the plate with immobilized HLA-G and incubated for 15 min at room temperature. After three wash cycles with PBST, residual LILRB binding to HLA-G was detected by developing the ELISA with TMB substrate.

recombinant LILRB2 ECD [3] = biological target: T1, recombinant LILRB2 ECD; assay: BLI, IgG on AHC sensor, ECD in solution
Description: (§2) Briefly, IgGs were captured on anti-human capture (AHC) biosensors (Sartorius). […] Subsequently, the sensors were dipped into 1× Kinetics Buffer to measure the dissociation over 420 s. All sensorgrams were double referenced against 1× Kinetics Buffer and unloaded […] sensors to subtract sensor drifts and potential reference binding of the analytes. The affinities were determined by applying a 1:1 binding model.

recombinant LILRB1 ECD [4] = biological target: T2, recombinant LILRB1 ECD (human, UniProt Q8NHL6 24-461); assay: BLI, IgG on AHC sensor, ECD in solution
T2 construct: also called biotinylated LILRB1 ECD
Description: as §2

recombinant LILRA3 = biological target: T3, recombinant LILRA3 (human, UniProt Q8N6C8 24-439); assay: BLI, IgG on AHC sensor, ECD in solution
T3 construct: whole entry named; also called LILRA3 ECD; LILA3
Description: as §2

recombinant LILRA1 ECD = biological target: T4, recombinant LILRA1 ECD (human, UniProt O75019 17-461); assay: BLI, IgG on AHC sensor, ECD in solution
T4 construct: whole canonical entry named; also called LILA1
Description: as §2

recombinant LILRB1 ECD [5] = biological target: T2, recombinant LILRB1 ECD; assay: ELISA, LILRB1 ECD binding to HLA-G-Fc
Description: as §1

T2 sequence (Q8NHL6 24-461 limits assumed): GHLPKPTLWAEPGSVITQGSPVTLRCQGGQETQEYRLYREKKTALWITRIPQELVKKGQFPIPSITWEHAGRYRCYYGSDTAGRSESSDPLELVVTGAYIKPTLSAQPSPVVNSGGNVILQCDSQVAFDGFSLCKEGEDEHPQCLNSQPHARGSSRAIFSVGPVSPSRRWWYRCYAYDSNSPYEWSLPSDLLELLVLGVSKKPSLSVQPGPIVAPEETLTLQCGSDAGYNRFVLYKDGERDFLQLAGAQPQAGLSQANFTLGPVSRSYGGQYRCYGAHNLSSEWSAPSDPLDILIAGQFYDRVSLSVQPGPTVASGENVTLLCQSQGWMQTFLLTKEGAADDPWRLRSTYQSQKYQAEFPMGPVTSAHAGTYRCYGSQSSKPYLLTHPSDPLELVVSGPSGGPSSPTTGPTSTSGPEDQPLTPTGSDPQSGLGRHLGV
T1 sequence (Q8N423 22-460 limits assumed): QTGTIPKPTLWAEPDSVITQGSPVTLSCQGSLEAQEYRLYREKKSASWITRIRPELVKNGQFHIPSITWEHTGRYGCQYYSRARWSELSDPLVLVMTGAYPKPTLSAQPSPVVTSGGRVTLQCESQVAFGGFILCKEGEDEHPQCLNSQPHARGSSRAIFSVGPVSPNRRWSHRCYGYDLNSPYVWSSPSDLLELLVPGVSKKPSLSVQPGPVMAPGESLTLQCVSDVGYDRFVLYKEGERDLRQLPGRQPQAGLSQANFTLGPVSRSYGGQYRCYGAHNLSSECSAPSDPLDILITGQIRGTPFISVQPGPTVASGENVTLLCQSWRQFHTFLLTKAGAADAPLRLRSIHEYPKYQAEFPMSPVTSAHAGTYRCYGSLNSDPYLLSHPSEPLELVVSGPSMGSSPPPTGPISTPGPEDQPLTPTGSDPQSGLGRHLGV
T3 sequence (Q8N6C8 24-439 limits assumed): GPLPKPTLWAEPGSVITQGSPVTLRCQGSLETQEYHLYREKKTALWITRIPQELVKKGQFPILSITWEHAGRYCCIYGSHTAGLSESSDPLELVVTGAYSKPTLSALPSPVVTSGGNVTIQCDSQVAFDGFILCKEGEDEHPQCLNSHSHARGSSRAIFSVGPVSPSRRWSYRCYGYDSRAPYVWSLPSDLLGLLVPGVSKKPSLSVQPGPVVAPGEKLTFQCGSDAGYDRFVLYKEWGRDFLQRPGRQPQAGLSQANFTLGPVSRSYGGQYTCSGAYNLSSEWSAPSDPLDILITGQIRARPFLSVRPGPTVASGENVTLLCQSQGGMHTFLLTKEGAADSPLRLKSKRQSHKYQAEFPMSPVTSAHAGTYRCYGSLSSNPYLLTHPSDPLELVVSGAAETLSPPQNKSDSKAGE
T4 sequence (O75019 17-461 limits assumed): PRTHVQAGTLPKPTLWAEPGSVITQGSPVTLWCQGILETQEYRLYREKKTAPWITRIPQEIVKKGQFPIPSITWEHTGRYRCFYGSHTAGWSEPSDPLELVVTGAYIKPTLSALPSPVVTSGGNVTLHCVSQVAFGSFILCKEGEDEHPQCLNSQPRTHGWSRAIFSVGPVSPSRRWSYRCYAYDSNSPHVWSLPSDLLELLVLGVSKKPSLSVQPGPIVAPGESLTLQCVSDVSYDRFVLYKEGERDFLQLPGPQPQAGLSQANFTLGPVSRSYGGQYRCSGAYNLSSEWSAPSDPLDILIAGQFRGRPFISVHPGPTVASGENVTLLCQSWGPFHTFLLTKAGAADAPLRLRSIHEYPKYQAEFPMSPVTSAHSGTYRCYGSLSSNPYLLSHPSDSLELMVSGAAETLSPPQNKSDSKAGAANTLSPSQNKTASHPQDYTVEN

Ref065 [IO-108, LILRB2 specific] (antibody)
IC50 (read off the curve) (recombinant LILRB2 ECD [1]): 3 nM

B1: A-026 (antibody, V domains shown)
VH: QVQLVQSGAEVKKPGSSVKVSCKASGYTFTSHGMSWVRQAPGQGLEWMGGILPIFHTATYAQKFQGRVTITADESTSTAYMELSSLRSEDTAVYYCAKGPPVGSSSWYTDWYFDLWGRGTLVTVSS
VL: SYELTQPPSVSVSPGQTASITCSGDKLGDKYASWYQQKPGQSPVLVIYQDSKRPSGIPERFSGSNSGNTATLTISGTQAEDEADYYCLSYGAHSHGVVFGGGTKLTVL
notes: tested as IgG
IC50 (recombinant LILRB2 ECD [2]): 5.3 nM | Kd (recombinant LILRB2 ECD [3]): 3.9 nM | Kd (recombinant LILRB1 ECD [4]): 4.4 nM | Kd (recombinant LILRA3): 79.3 nM | Kd (recombinant LILRA1 ECD): 120 nM | IC50 (recombinant LILRB1 ECD [5]): 6.1 nM

B2: A-038 (antibody, V domains shown)
VH: QVQLVQSGAEVKKPGSSVKVSCKASGGTFSSYAISWVRQAPGQGLEWMGGIIPIFGTANYAQKFQGRVTITADESTSTAYMELSSLRSEDTAVYYCAKGPPVGSSSWYTDWYFDLWGRGTLVTVSS
VL: SYELTQPPSVSVSPGQTASITCSGDKLGDKYASWYQQKPGQSPVLVIYQDSKRPSGIPERFSGSNSGNTATLTISGTQAEDEADYYCSLYGAGHTVVFGGGTKLTVL
notes: tested as IgG
IC50 (recombinant LILRB2 ECD [2]): 3.4 nM | Kd (recombinant LILRB2 ECD [3]): 4.8 nM | Kd (recombinant LILRB1 ECD [4]): 6.7 nM | Kd (recombinant LILRA3): 448 nM | Kd (recombinant LILRA1 ECD): 209 nM | IC50 (recombinant LILRB1 ECD [5]): 2.2 nM

B3: A-047 (antibody, V domains shown)
VH: QVQLVQSGAEVKKPGSSVKVSCKASGYTFSKSAMSWVRQAPGQGLEWMGGIVPKFHTSVYAQKFQGRVTITADESTSTAYMELSSLRSEDTAVYYCAKGPPVGSSSWYTDWYFDLWGRGTLVTVSS
VL: SYELTQPPSVSVSPGQTASITCSGDKLGDKYASWYQQKPGQSPVLVIYQDSKRPSGIPERFSGSNSGNTATLTISGTQAEDEADYYCSLYGAGHTVVFGGGTKLTVL
notes: tested as IgG
IC50 (recombinant LILRB2 ECD [2]): 4.6 nM | Kd (recombinant LILRB2 ECD [3]): 1.7 nM | Kd (recombinant LILRB1 ECD [4]): 2.6 nM | Kd (recombinant LILRA3): 318 nM | Kd (recombinant LILRA1 ECD): 128 nM | IC50 (recombinant LILRB1 ECD [5]): 1.9 nM

B4: A-032 (antibody, V domains shown)
VH: QVQLVQSGAEVKKPGSSVKVSCKASGGTFQSYAFSWVRQAPGQGLEWMGGIVPQYSTAVYAQKFQGRVTITADESTSTAYMELSSLRSEDTAVYYCAKGPPVGSSSWYTDWYFDLWGRGTLVTVSS
VL: SYELTQPPSVSVSPGQTASITCSGDKLGDKYASWYQQKPGQSPVLVIYQDSKRPSGIPERFSGSNSGNTATLTISGTQAEDEADYYCLSYGAHSHGVVFGGGTKLTVL
notes: tested as IgG
IC50 (recombinant LILRB2 ECD [2]): 7.6 nM | Kd (recombinant LILRB2 ECD [3]): 2.5 nM | Kd (recombinant LILRB1 ECD [4]): 2.2 nM | Kd (recombinant LILRA3): 253 nM | Kd (recombinant LILRA1 ECD): 79.5 nM | IC50 (recombinant LILRB1 ECD [5]): 10.5 nM

B5: A-039 (antibody, V domains shown)
VH: QVQLVQSGAEVKKPGSSVKVSCKASGGTFSSYAISWVRQAPGQGLEWMGGIIPIFGTANYAQKFQGRVTITADESTSTAYMELSSLRSEDTAVYYCAKGPPVGSSSWYTDWYFDLWGRGTLVTVSS
VL: SYELTQPPSVSVSPGQTASITCSGDKLGDKYASWYQQKPGQSPVLVIYQDSKRPSGIPERFSGSNSGNTATLTISGTQAEDEADYYCALYGGGHTVVFGGGTKLTVL
notes: tested as IgG
IC50 (recombinant LILRB2 ECD [2]): 2.4 nM | Kd (recombinant LILRB2 ECD [3]): 13.7 nM | Kd (recombinant LILRB1 ECD [4]): 21.6 nM | Kd (recombinant LILRA3): 1550 nM | Kd (recombinant LILRA1 ECD): 1030 nM | IC50 (recombinant LILRB1 ECD [5]): 2 nM

B6: A-033 (antibody, V domains shown)
VH: QVQLVQSGAEVKKPGSSVKVSCKASGYTFSSHAMSWVRQAPGQGLEWMGGIIPTFKTAVFAQKFQGRVTITADESTSTAYMELSSLRSEDTAVYYCAKGPPVGSSSWYTDWYFDLWGRGTLVTVSS
VL: SYELTQPPSVSVSPGQTASITCSGDKLGDKYASWYQQKPGQSPVLVIYQDSKRPSGIPERFSGSNSGNTATLTISGTQAEDEADYYCLSYGAHSHGVVFGGGTKLTVL
notes: tested as IgG
IC50 (recombinant LILRB2 ECD [2]): 8.6 nM | Kd (recombinant LILRB2 ECD [3]): 1.4 nM | Kd (recombinant LILRB1 ECD [4]): 0.5 nM | Kd (recombinant LILRA3): 84.8 nM | Kd (recombinant LILRA1 ECD): 23 nM | IC50 (recombinant LILRB1 ECD [5]): 8.3 nM
